The values that follow come from patent publication US20030224390A1, “Method of identifying conformation-sensitive binding peptides and uses thereof” (Karo Bio AB, priority 2000, published 2003).

The target in experiment [1] is T1, pVP16-AR (VP16 activation domain fused to androgen receptor), P10275.
T1 chain: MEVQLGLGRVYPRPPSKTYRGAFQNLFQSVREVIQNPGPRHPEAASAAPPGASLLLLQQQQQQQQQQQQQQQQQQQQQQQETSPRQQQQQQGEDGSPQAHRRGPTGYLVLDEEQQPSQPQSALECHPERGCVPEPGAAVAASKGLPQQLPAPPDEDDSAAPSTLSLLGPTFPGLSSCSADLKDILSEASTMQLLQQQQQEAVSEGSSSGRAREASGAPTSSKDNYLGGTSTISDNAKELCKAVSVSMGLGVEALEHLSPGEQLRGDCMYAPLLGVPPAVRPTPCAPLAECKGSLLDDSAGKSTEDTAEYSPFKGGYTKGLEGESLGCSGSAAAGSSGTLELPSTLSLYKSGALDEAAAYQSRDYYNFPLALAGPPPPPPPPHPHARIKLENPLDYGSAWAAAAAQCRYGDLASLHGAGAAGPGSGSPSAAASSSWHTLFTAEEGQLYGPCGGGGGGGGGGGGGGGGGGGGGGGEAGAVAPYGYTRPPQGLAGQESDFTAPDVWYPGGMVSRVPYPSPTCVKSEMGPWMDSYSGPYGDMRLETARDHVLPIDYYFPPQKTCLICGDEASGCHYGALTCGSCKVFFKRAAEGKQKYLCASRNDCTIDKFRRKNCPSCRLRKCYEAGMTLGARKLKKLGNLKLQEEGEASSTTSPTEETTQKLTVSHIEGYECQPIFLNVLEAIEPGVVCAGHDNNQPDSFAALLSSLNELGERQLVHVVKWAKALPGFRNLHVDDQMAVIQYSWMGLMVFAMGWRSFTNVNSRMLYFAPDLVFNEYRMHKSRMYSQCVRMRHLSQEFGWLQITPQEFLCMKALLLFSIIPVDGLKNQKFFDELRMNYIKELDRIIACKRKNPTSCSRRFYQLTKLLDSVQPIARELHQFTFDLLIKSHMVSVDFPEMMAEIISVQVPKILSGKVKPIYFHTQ
The experiment is described as follows: cell-based or functional assay.

The target in experiment [2] is T2, Gal4 transcriptional activation domain (AD) fused in frame with AR (pGAD-C2) (yeast), P10275.
T2 chain: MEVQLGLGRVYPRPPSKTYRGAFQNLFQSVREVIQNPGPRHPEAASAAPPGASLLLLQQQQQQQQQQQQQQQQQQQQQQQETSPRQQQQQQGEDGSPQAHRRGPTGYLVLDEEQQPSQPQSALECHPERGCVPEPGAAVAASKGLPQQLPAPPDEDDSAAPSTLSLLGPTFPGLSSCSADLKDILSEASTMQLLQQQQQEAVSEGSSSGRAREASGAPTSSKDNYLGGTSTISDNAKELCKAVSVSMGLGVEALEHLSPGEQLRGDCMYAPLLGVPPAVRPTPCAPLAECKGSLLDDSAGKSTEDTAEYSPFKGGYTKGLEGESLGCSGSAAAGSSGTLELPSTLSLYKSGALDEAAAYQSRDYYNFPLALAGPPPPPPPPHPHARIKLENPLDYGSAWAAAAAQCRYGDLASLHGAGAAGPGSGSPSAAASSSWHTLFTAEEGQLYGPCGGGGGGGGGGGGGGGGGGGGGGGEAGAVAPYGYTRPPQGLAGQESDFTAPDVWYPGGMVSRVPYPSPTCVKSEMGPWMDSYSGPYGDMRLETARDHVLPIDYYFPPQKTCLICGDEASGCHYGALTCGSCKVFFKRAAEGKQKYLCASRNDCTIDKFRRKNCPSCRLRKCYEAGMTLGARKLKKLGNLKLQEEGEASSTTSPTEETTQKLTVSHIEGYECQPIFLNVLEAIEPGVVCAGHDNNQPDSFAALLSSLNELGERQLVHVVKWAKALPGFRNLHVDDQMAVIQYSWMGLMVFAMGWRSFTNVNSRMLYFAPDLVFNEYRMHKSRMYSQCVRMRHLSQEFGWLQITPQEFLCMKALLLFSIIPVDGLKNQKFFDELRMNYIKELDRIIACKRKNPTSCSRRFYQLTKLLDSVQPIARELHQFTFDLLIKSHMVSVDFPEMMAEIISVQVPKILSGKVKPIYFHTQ
The experiment is described as follows: cell-based or functional assay.

B1: B8E9, P04386 1-147 (peptide)
chain: MKLLSSIEQACDICRLKKLKCSKEKPKCAKCLKNNWECRYSPKTKRSPLTRAHLTEVESRLERLEQLFLLIFPREDLDMILKMDSLQDIKALLTGLFVQDNVNKDAVTDRLASVETDMPLTLRQHRISATSSSEESSNKGQRQLTVSEFQQCMCAEVKSWLGGSLDLQPS
modifications: not checked
In experiment [1], B1 gave a normalized luciferase activity, mammalian two-hybrid; CYP. of 16; a normalized luciferase activity, mammalian two-hybrid; DHT of 19.6; a normalized luciferase activity, mammalian two-hybrid; MPA of 18.5; a normalized luciferase activity, mammalian two-hybrid; RU486 of 10.2. Also, the normalized luciferase activity, mammalian two-hybrid; no compound in experiment [1] turned out to be 0.209. In experiment [2], this molecule returned a Fold induction, yeast two-hybrid of 4 fold; a β-galactosidase activity, yeast two-hybrid; CPA of 0.563; a β-galactosidase activity, yeast two-hybrid; DHT of 1.75; a β-galactosidase activity, yeast two-hybrid; No Lig of 0.499. In experiment [2], this molecule came in with a β-galactosidase activity, yeast two-hybrid; RU of 0.8.

B2: B8H3, P04386 1-147 (peptide)
chain: MKLLSSIEQACDICRLKKLKCSKEKPKCAKCLKNNWECRYSPKTKRSPLTRAHLTEVESRLERLEQLFLLIFPREDLDMILKMDSLQDIKALLTGLFVQDNVNKDAVTDRLASVETDMPLTLRQHRISATSSSEESSNKGQRQLTVSEFHSRLRVEVVSWGIGSTCSQANSGRISYDL
modifications: not checked
Turning to B2, in experiment [1], the normalized luciferase activity, mammalian two-hybrid; CYP. was found to be 10.5; the normalized luciferase activity, mammalian two-hybrid; DHT turned out to be 11.6; the normalized luciferase activity, mammalian two-hybrid; MPA was found to be 11.3; the normalized luciferase activity, mammalian two-hybrid; RU486 amounted to 3.88. Moreover, the normalized luciferase activity, mammalian two-hybrid; no compound in experiment [1] came out at 0.132. Besides, in experiment [2], the Fold induction, yeast two-hybrid was determined as 22 fold; the β-galactosidase activity, yeast two-hybrid; CPA came to 0.393; the β-galactosidase activity, yeast two-hybrid; DHT was found to be 3.81; the β-galactosidase activity, yeast two-hybrid; No Lig was 0.174. In experiment [2], this molecule had a β-galactosidase activity, yeast two-hybrid; RU of 0.

B3: B5G11, P04386 1-147 (peptide)
chain: MKLLSSIEQACDICRLKKLKCSKEKPKCAKCLKNNWECRYSPKTKRSPLTRAHLTEVESRLERLEQLFLLIFPREDLDMILKMDSLQDIKALLTGLFVQDNVNKDAVTDRLASVETDMPLTLRQHRISATSSSEESSNKGQRQLTVSEFRSSVFEQMYLCTGGSLDLQPS
modifications: not checked
In experiment [1], B3 came in with a normalized luciferase activity, mammalian two-hybrid; CYP. of 4.46; a normalized luciferase activity, mammalian two-hybrid; DHT of 15.8; a normalized luciferase activity, mammalian two-hybrid; MPA of 8.03; a normalized luciferase activity, mammalian two-hybrid; RU486 of 0.105. In experiment [1], this molecule gave a normalized luciferase activity, mammalian two-hybrid; no compound of 0.0503. Further, in experiment [2], the Fold induction, yeast two-hybrid was 6 fold; the β-galactosidase activity, yeast two-hybrid; CPA was determined as 0.973; the β-galactosidase activity, yeast two-hybrid; DHT was determined as 3.96; the β-galactosidase activity, yeast two-hybrid; No Lig was determined as 0.638. For the same molecule, the β-galactosidase activity, yeast two-hybrid; RU in experiment [2] came out at 0.9.
